Assay results from patent US11224662B2, “Methods and therapeutics comprising ligand-targeted ELPs” (priority 2012, dated 2022).

Experiments:
[1] = molecular target: T1, coxsackie adenovirus receptor (CAR) (Mus musculus, UniProt P97792); test: Competitive binding and uptake with anti-mouse CAR antibody in hepatocytes; type: cell-based; settings: 20 μg/mL anti-mouse CAR antibody 30 minutes at 37° C., then 10 μM rhodamine-conjugated knob-S48I48
T1 construct: This study was carried out in transformed mouse hepatocytes because of the high expression of CAR; endogenous in cells; host or cells: transformed mouse hepatocyte cell line
T1 sequence (P97792 20-365): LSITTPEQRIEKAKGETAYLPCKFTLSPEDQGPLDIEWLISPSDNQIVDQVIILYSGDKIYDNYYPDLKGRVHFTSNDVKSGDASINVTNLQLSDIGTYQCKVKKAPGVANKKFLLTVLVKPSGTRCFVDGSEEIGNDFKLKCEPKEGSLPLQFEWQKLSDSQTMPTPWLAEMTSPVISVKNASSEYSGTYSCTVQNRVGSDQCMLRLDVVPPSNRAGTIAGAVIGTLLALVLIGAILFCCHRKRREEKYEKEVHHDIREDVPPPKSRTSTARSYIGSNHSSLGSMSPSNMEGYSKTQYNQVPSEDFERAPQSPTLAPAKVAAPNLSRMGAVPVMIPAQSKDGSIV
Protocol: After confirming that the goat anti-mouse CAR antibody has a high affinity with the mouse hepatocytes, the anti-mouse CAR antibody (0.2 mg/mL) was diluted with warm medium 10-fold and incubated with the hepatocytes for 30 minutes at 37° C. Knob-S48148 conjugated with rhodamine was then added to the medium at a concentration of 10 μM. After 30 minutes incubation with knob-S48148 and 75 nM LYSOTRACKER® green, the hepatocytes were rinsed, then incubated in fresh warm medium with 75 nM LYSOTRACKER® green and imaged as described above.

[2] = Dynamic light scattering of ELP nanoparticles; type: physicochemical
Protocol: (§1) To explore the temperature-dependent phase behavior of the ELPs, optical density and hydrodynamic radius were observed over a range of temperatures. Knob-S96, S48148 and knob-S48148 were diluted to 25 μM in PBS on ice and the absorbance at 350 nm was monitored with a DU800 UV-Vis spectrophotometer (Beckman Coulter, Brea, Calif.) at a temperature gradient of 1° C./minute. […] Then 90 μL sample of was transferred into a 384 well microplate and covered with 20 μL mineral oil. The microplate and mineral oil were pre-chilled at 4° C. at least for 1 hour. The microplate was centrifuged at 4° C. to remove air bubbles from samples before and after addition of mineral oil. Then the sample was measured in a DynaPro plate reader (Wyatt Inc., Santa Barbara, Calif.) at temperature intervals of 1° C. The resulting hydrodynamic radii were collected and analyzed by Dynamics (Wyatt Inc., Santa Barbara, Calif.).

[3] = Temperature-dependent optical density (turbidity) of ELP fusion peptides; type: physicochemical; settings: 25 μM in PBS; for Transition Temperature T1: first phase transition; for Transition Temperature T1 / Transition Temperature T2: optical density; for Transition Temperature T2: second phase transition
Protocol: as §1

[4] = test system: transformed mouse hepatocytes; test: Live cell uptake of rhodamine-conjugated ELP/knob-ELP in hepatocytes; type: cell-based; settings: 10 μM rhodamine-labeled, 30 minutes at 37° C., confocal microscopy, LYSOTRACKER green
Protocol: To track cellular uptake, the ELPs S48148 and knob-S48148 were conjugated with a detectable label, NHS-Rhodamine (Thermo Fisher Scientific Inc, Rockford, Ill.) via covalent modification of primary amines at the amino end of the peptide. For S48148, the only available amine is at the amino terminus; however, knob-S48148 has an additional 11 lysine residues that may be sites of modification. The conjugation was performed in 100 mM borate buffer for 2 hours at 4° C., and the conjugated ELP was separated by size exclusion chromatography on a PD10 desalting column (GE Healthcare, Piscataway, N.J.).
To observe uptake into mouse hepatocytes, cells were cultured on 35 mm glass coverslip-bottomed dishes with medium [(DMEM (4.5 g/L) containing 10% fetal bovine serum, g/ml insulin, and 0.02 [μg/ml epidermal growth factor]. Uptake studies were conducted when hepatocytes reached 70% confluence. After washing with warm fresh medium, hepatocytes were cultured in medium containing 10 μM of either S48148 or knob-S48148 conjugated with rhodamine, and 75 nM LYSOTRACKER® green. After 30 minutes incubation at 37° C., the cells were rinsed with warm fresh medium to remove the free knob-ELP/ELP in the medium. Next cells were incubated with 75 nM LYSOTRACKER® green in a 37° C. incubation chamber. […]

[5] = test system: lacrimal gland acinar cells (LGACs); test: Suppression of transcytosis by Myosin Vb tail overexpression in LGACs; type: cell-based, rabbit; settings: 30 μM Cy5-conjugated, 60 minutes at 37° C.
Protocol: To obtain the indication of lumen area of LGACs, the cells were also pre-infected with Adenovirus EGFP-actin and helper virus at a 37° C. incubator with 5% CO2 overnight. To avoid the clash of fluorescence colours, the knob-S48148 used in transcytosis inhibition was conjugated with Cy5. The LGACs were grown on 35 mm glass-bottomed dishes for two days. Adenovirus EGFP-actin and helper virus with or without adenovirus mCherry Myosin Vb tail were added into dishes and cultured overnight. After waiting for expression of fluorescence, confocal microscopy was used to make sure adenovirus mCherry-myosin Vb tail and adenovirus EGFP-actin grow in LGACs. On the third day, knob-S48148 conjugated with Cy5 was then mixed with the cold medium at a concentration of 30 μM, warmed to 37° C. and then added into dishes. After 60 minutes incubation in a 37° C. incubator with 5% CO2, LGACs were thoroughly rinsed with fresh warm medium then immediately imaged under a Zeiss LSM 510 Meta confocal microscope system, which is equipped with argon and red and green He—Ne lasers and mounted on a vibration-free table. All images were captured under the confocal microscope and processed using ImageJ (NIH, USA).

[6] = test system: LG of BALB/c mice; test: In vivo retention in the lacrimal gland after intra-lacrimal gland injection; set-up: species or system mouse; settings: 5 μL of 50 μM rhodamine-labelled, 1 h, compared with untargeted S48I48
Protocol: Twelve-week-old male BALB/c mice were administered, by intra-lacrimal gland injection, 5 μL of 50 μM rhodamine-labelled S48148 or rhodamine-labelled knob-S48148 (red) combined with 50 μg CF-dextran (10 kD, green). After 1 h, mice were euthanized and the glands were retrieved, embedded into the O.C.T. compound (Tissue-Tek), and frozen on dry ice. The frozen tissue blocks were cut into 10 μm thick sections and imaged using confocal fluorescence microscopy. The white arrows indicate endocytosed S48148 or knob-S48148 nanoparticles. The bar represents 10 μm. […] For this experiment, the mice were euthanatized by intraperitoneal injection with 55 mg ketamine and 14 mg xylazine per kilogram of body weight, followed by cervical dislocation. 5 μL of 50 μM rhodamine labelled knob-S48148 or S48148 was injected into the lacrimal glands of mice. After 60 minutes, the tear was collected from one eye of mouse by adding Carbachol into the related lacrimal gland. For another gland, it was removed after the tear collection was done at the first eye. After removal, LGs were snap frozen and stored on the dry ice. The frozen glands were cut into 10 μm thick sections and mounted on glass slides. Then the sections were examined with a confocal laser scanning microscope (LSM) at excitation wavelengths of 488 and 534 nm.

B1: knob-G(VPGSG)48(VPGIG)48Y (SEQ ID. NO: 10) (protein)
chain: GVPGSGVPGSGVPGSGVPGSGVPGSGVPGSGVPGSGVPGSGVPGSGVPGSGVPGSGVPGSGVPGSGVPGSGVPGSGVPGSGVPGSGVPGSGVPGSGVPGSGVPGSGVPGSGVPGSGVPGSGVPGSGVPGSGVPGSGVPGSGVPGSGVPGSGVPGSGVPGSGVPGSGVPGSGVPGSGVPGSGVPGSGVPGSGVPGSGVPGSGVPGSGVPGSGVPGSGVPGSGVPGSGVPGSGVPGSGVPGSGVPGIGVPGIGVPGIGVPGIGVPGIGVPGIGVPGIGVPGIGVPGIGVPGIGVPGIGVPGIGVPGIGVPGIGVPGIGVPGIGVPGIGVPGIGVPGIGVPGIGVPGIGVPGIGVPGIGVPGIGVPGIGVPGIGVPGIGVPGIGVPGIGVPGIGVPGIGVPGIGVPGIGVPGIGVPGIGVPGIGVPGIGVPGIGVPGIGVPGIGVPGIGVPGIGVPGIGVPGIGVPGIGVPGIGVPGIGVPGIGY
notes: assembles into nanoparticles
- intracellular knob-S48I48 fluorescence after anti-mouse CAR antibody pre-incubation [1]: reduced the intracellular punctate fluorescence
- size by dynamic light scattering (BSA; unimers of the ELPs) ([2]; BSA stable from 10 to 37° C., ELPs as unimers below assembly temperature): around 4 nm
- critical nanoparticle temperature (CNT) ([2]; dynamic light scattering): 19.5 °C
- Hydrodynamic radius (nm) at 37° C. ([2]; dynamic light scattering, 25 μM in PBS, 37° C.): 21.7 nm
- hydrodynamic diameter of nanoparticles ([2]; dynamic light scattering, self-assembled nanoparticles): around 40 nm
- Transition Temperature T1 [3]: 19.5 °C
- Transition Temperature T1 ([3]; listed as Knob-S48148): around 19.5 °C
- Critical aggregation temperature ([3]; optical density at 350 nm by UV-Vis spectrophotometer): 19.5 °C
- Transition Temperature T2 [3]: 60 °C
- Transition Temperature T2 ([3]; listed as Knob-S48148): around 60 °C
- cellular uptake / fluorescence localisation [4]: significant cellular uptake
- transcytosis with overexpressed mCherry myosin Vb tail [5]: significantly reduce the transcytosis
- retention in lacrimal gland (accumulation, surface association, internalization) [6]: stronger apical-membrane/luminal accumulation, surface association, and internalization
